Assay results taken from article doi:10.1101/396861.

Target: T1, AtHYL1-FL (HYL1/DRB1 full length) (Arabidopsis thaliana, UniProt O04492 1-419)
T1 sequence: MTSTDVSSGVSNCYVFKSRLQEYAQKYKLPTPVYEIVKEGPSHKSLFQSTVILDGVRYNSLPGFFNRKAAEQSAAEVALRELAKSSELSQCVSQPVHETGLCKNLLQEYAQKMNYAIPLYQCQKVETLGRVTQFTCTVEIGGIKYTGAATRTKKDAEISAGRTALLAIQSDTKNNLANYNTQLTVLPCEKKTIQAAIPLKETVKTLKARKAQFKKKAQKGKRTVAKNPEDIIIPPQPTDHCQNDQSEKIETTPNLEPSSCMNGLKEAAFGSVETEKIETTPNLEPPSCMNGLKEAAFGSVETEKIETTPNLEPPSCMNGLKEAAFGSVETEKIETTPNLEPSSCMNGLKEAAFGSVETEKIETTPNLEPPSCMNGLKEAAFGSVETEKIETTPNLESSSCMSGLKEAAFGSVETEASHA
Experiment: EMSA

GCCCTGCAACCGAGACCACGCTTATGGAGCCTGGGACGTGGTCTCGGTTG (structured_DNA) [50-nt DNA hairpin (dsDNA hairpin loop)]: binds.
